This note sets out measurements from US20140255415A1 (Novartis, published 2014).

Changes are numbered by the printed parent chain.

Assay [1] addresses T1, human LINGO-1-ΔLRR-Fc (Igleader-hsLINGO-1-ΔLRR-Fc) (human, UniProt Q96FE5 40-556).
T1 construct: Heterologous secretion signal left out; also called human LINGO-1 lacking the LRR domain
T1 sequence: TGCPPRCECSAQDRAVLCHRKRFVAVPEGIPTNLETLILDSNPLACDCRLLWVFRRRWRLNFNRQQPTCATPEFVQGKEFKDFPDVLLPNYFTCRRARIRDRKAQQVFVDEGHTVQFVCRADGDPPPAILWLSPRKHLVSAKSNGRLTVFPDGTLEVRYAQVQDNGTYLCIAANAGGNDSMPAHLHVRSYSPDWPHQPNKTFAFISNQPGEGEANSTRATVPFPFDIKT
In words: ELISA, captured Fc fusion protein. A general note: An ELISA detects its analyte on a solid surface through an enzyme-linked reagent.

The target in assay [2] is T2, human NgR-Fc fusion protein (R&D Systems) (human, UniProt Q9BZR6 27-447, limits assumed).
T2 construct: Commercial protein; also called captured human NgR-Fc; not shown: Fc part of the commercial fusion protein; not described
T2 sequence (looked up): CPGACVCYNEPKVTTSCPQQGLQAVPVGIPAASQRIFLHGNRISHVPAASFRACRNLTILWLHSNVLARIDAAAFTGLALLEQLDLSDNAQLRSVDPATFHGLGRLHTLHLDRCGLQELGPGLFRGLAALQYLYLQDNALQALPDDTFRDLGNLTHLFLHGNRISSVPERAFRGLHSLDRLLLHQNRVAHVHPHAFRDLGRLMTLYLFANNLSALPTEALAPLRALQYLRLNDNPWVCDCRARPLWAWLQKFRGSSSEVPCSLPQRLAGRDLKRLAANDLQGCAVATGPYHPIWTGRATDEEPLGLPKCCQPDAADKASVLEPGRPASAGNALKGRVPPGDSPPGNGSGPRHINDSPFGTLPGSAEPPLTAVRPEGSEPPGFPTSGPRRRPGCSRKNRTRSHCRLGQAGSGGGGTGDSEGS
In words: ELISA, captured Fc fusion protein.

Assay [3] has as its target human LINGO-1 expressed on CHO-K1 cells (CHO-K1-hLINGO-1) (human) (UniProt Q96FE5). In words: apparent KD, FACS saturation binding on CHO-K1-hLINGO-1 cells, Fab format.
For assay [4], the target named is T3, rat LINGO-1 expressed on CHO-K1 cells (CHO-K1-rLINGO-1) (rat, UniProt A0A8I5ZPI2 34-614).
T3 construct: range 34-614; not shown: 2 amino acid residue linker
T3 sequence: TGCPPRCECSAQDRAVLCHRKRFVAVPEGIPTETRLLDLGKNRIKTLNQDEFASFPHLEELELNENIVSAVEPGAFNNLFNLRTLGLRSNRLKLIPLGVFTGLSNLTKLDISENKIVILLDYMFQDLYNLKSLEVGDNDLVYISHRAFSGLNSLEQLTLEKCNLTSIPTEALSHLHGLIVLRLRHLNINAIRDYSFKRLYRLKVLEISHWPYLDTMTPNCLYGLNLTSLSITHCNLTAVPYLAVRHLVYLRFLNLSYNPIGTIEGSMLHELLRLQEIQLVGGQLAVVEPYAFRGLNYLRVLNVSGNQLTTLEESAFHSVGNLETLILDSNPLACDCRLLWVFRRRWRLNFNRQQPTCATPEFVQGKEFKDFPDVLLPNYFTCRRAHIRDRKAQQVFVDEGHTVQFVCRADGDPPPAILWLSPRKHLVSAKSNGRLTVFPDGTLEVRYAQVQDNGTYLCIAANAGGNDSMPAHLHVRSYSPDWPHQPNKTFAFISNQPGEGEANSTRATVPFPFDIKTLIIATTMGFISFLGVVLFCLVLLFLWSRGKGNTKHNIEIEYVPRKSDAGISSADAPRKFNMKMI
As to the kind of experiment: apparent KD, FACS saturation binding on CHO-K1-rLINGO-1 cells, Fab format. As for the experimental part:
(§1) Cell based affinity of anti-LINGO-1 specific antibodies is determined by FACS saturation binding experiments. […] Otherwise the staining procedure is done identical to the FACS staining procedure described above.
(§2) In detail, CHO-K1-hLINGO-1, CHO-K1-cmLINGO-1 or CHO-K1-rLINGO-1 are detached from culture flasks by versene, washed with FACS buffer and resuspended in FACS buffer. Purified anti-LINGO-1 Fabs are serially diluted in FACS buffer and spread into round bottom 96-well microtiter plates (NUNC™, Wiesbaden, Germany). For each concentration, duplicate wells are incubated with 1.25×10⁴ cells for 30-60 min on ice in a total volume of 100 μl.

Assay [5] has as its target T4, cynomolgus monkey LINGO-1 expressed on CHO-K1 cells (CHO-K1-cmLINGO-1) (cynomolgus monkey, UniProt Q9N008 34-614).
T4 construct: range 34-614; also called Cynomolgus LINGO-1; not shown: 2 amino acid residue linker
T4 sequence (looked up): T3 sequence with G261S, V286M, A315V, H386R, S494P
In words: apparent KD, FACS saturation binding on CHO-K1-cmLINGO-1 cells, Fab format. Here is the method:
as §1, §2

The target of a further assay is Unrelated Fc. In words: ELISA, Fc fusion captured via goat anti-human IgG Fc, Fab detected with AP-conjugated secondary and AttoPhos.
Assay [6] addresses T1, human LINGO-1-ΔLRR-Fc …. Described as above.
Assay [7] deals with T2, human NgR-Fc fusion protein (R&D …). The assay is described as above.
Assay [8] addresses T5, human LINGO-1-Fc fusion protein (natleader-hsLINGO-1-Fc) (human, UniProt Q96FE5 42-556).
T5 construct: also called human recombinant LINGO-1-Fc; captured human LINGO-1-Fc; not shown: protein lette
T5 sequence: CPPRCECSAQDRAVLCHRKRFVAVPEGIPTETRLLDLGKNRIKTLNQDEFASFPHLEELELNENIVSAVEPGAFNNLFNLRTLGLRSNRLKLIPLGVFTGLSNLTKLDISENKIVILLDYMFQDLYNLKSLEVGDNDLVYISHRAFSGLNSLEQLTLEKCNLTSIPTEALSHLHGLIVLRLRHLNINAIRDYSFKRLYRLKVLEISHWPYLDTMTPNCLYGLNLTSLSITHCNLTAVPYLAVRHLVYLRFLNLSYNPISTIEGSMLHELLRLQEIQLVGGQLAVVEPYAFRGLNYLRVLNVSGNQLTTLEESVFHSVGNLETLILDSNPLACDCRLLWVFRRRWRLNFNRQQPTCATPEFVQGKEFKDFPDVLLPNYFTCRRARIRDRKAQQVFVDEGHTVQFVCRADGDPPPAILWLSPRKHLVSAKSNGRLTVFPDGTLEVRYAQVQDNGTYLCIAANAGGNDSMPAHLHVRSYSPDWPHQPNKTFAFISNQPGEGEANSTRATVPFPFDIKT
The description is as above.

B1: anti-LINGO-1 Fab 4784 (Fab, V domains shown)
VH: QVQLKESGPALVKPTQTLTLTCTFSGFSLSSSGVGVGWIRQPPGKALEWLAHIGSDDDKYYSTSLKTRLTISKDTSKNQVVLTMTNMDPVDTATYYCARNQQYGDGYPGYFDYWGQGTLVTVSS
VL: DIELTQPPSVSVAPGQTARISCSGDNIGNYYVYWYQQKPGQAPVLVIYEDTNRPSGIPERFSGSNSGNTATLTISGTQAEDEADYYCQSYDNLHEQVFGGGTKLTVLG
On to B1, for which the binding result in [1] and in [2] was “no binding” in each case. Further, the results for the Kd in assay [3], in [4] and in assay [5] were 14.1 nM, 24 nM and 27.1 nM, respectively. The relative fluorescence units (RFU) with Unrelated Fc turned out to be 52 RFU; in assay [6], 49 RFU; in [7], 68 RFU; in assay [8] it was 98 RFU.
